Settings in all cases: remark: other sources report otherwise
In assay [1] the target is T1, recombinant homotrimeric HA, A/Hong Kong/1073/99 H9N2 (Influenza A virus A/Hong Kong/1073/99 (H9N2)). The experiment in a line: trimeric HA microarray, transfection set 1.
Assay [2] addresses recombinant homotrimeric HA, A/northern shoveler/California/HKWF115/07 (Influenza A virus A/northern shoveler/California/HKWF115/2007 (H6N1)). The experiment in a line: trimeric HA microarray, transfection set 1.
Assay [3] addresses T1, recombinant homotrimeric HA, A/Hong …. The assay can be described thus: trimeric HA microarray, transfection set 2.
For assay [4], the target named is T2, recombinant homotrimeric HA, A/California/4/09 H1N1 (Influenza A virus A/California/4/09 (H1N1)). The assay can be described thus: trimeric HA microarray, transfection set 3.
Assay [5] addresses recombinant homotrimeric HA, A/Egypt/3300-NAMRU3/08 H5N1 (Influenza A virus A/Egypt/3300-NAMRU3/08 (H5N1)). The experiment in a line: trimeric HA microarray, transfection set 3.
Assay [6] has as its target recombinant homotrimeric HA, A/Hong Kong/2108/03 H9N2 (Influenza A virus A/Hong Kong/2108/03 (H9N2)). The assay can be described thus: trimeric HA microarray, transfection set 3.
The target of assay [7] is T3, recombinant homotrimeric HA, A/Indonesia/5/05 H5N1 (Influenza A virus A/Indonesia/5/05 (H5N1)). The assay can be described thus: trimeric HA microarray, transfection set 3.
Assay [8] has as its target T4, recombinant homotrimeric HA, A/Japan/305/57 H2N2 (Influenza A virus A/Japan/305/57 (H2N2)). The experiment in a line: trimeric HA microarray, transfection set 3.
Assay [9] deals with T5, recombinant homotrimeric HA, A/Solomon Islands/3/06 H1N1 (Influenza A virus A/Solomon Islands/3/06 (H1N1)). The experiment in a line: trimeric HA microarray, transfection set 3.
Assay [10] has as its target T6, recombinant homotrimeric HA, A/South Carolina/1/18 H1N1 (Influenza A virus A/South Carolina/1/18 (H1N1)). The assay can be described thus: trimeric HA microarray, transfection set 3.
The target in assay [11] is T7, recombinant homotrimeric HA, A/Vietnam/1203/04 H5N1 (Influenza A virus A/Vietnam/1203/04 (H5N1)). The experiment in a line: trimeric HA microarray, transfection set 3.
Assay [12] concerns the target recombinant homotrimeric HA, A/chicken/Vietnam/NCVD-016/08 H5N1 (Influenza A virus A/chicken/Vietnam/NCVD-016/08 (H5N1)). The experiment in a line: trimeric HA microarray, transfection set 3.
The target in assay [13] is recombinant homotrimeric HA, A/common magpie/Hong Kong/5052/07 H5N1 (Influenza A virus A/common magpie/Hong Kong/5052/07 (H5N1)). The experiment in a line: trimeric HA microarray, transfection set 3.
For assay [14], the target named is T8, recombinant homotrimeric HA, A/swine/Ontario/01911-2/99 H4N6 (Influenza A virus A/swine/Ontario/01911-2/99 (H4N6)). The assay can be described thus: trimeric HA microarray, transfection set 3.
Assay [15] has as its target T2, recombinant homotrimeric HA, …. The experiment in a line: trimeric HA microarray, transfection set 4.
The target of assay [16] is T3, recombinant homotrimeric HA, …. The experiment in a line: trimeric HA microarray, transfection set 4.
Assay [17] concerns the target T4, recombinant homotrimeric HA, …. The experiment in a line: trimeric HA microarray, transfection set 4.
Assay [18] deals with T5, recombinant homotrimeric HA, A/Solomon …. The assay can be described thus: trimeric HA microarray, transfection set 4.
Assay [19] has as its target T6, recombinant homotrimeric HA, A/South …. The assay can be described thus: trimeric HA microarray, transfection set 4.
For assay [20], the target named is T7, recombinant homotrimeric HA, …. The assay can be described thus: trimeric HA microarray, transfection set 4.
Assay [21] has as its target T8, recombinant homotrimeric HA, …. The assay can be described thus: trimeric HA microarray, transfection set 4.
Assay [22] addresses T9, recombinant homotrimeric HA, A/Anhui/1/05 H5N1 (Influenza A virus A/Anhui/1/05 (H5N1)). The assay can be described thus: trimeric HA microarray, transfection set 1.
For assay [23], the target named is T10, recombinant homotrimeric HA, A/Netherlands/219/03 H7N7 (Influenza A virus A/Netherlands/219/03 (H7N7)). The experiment in a line: trimeric HA microarray, transfection set 1.
The target in assay [24] is recombinant homotrimeric HA, A/Wisconsin/67/05 H3N2 (Influenza A virus A/Wisconsin/67/05 (H3N2)). The assay can be described thus: trimeric HA microarray, transfection set 1.
For assay [25], the target named is T11, recombinant homotrimeric HA, A/duck/Yangzhou/02/05 H8N4 (Influenza A virus A/duck/Yangzhou/02/2005 (H8N4)). The assay can be described thus: trimeric HA microarray, transfection set 1.
Assay [26] concerns the target T9, recombinant homotrimeric HA, …. The experiment in a line: trimeric HA microarray, transfection set 2.
Assay [27] deals with T10, recombinant homotrimeric HA, …. The assay can be described thus: trimeric HA microarray, transfection set 2.
In assay [28] the target is T11, recombinant homotrimeric HA, …. The assay can be described thus: trimeric HA microarray, transfection set 2.
For assay [29], the target named is recombinant soluble homotrimeric HA of A/Hong Kong/2108/03 - H9N2 (Influenza A virus A/HK/2108/2003 (H9N2)). The experiment in a line: micro-array; captured IgG, V5-tagged trimeric HA.

B1: TCN-523 (5248_A17) (antibody, V domains shown)
VH: QVQLVQSGAEVKKPGSSVKVSCKASGGSFSNYAFSWVRQAPGQGLEWMGGTIPLLGTTNYAQKFQGRVTISADQFTSTAYMELGSLRSEDTAVYYCTRRKMTTAFDSWGQGTLVTVSS
VL: QPVLTQPPSASASLGASVTLTCTLSSAYSNYKVDWYQQRPGKGPRFVMRVGTGGIVGSKGDGIPDRFSVLGSGLNRYLTIKNIQEEDESDYHCGADHGSGSNFVSPYVFGGGTKLTVL
For B1, the Trimeric HA Binding RLU is 21700 RLU in [1]; 9050 RLU in assay [2]; 31300 RLU in assay [3]; 19400 RLU in assay [4]; 29100 RLU in assay [5]; 51 RLU in [6]. The Trimeric HA Binding RLU stood at 22000 RLU in [7]; 4550 RLU in assay [8]; 11000 RLU in [9]; 23700 RLU in assay [10]; 22100 RLU in assay [11]; 18900 RLU in assay [12]. Also, the Trimeric HA Binding RLU was 640 RLU in assay [13]; 1640 RLU in assay [14]; 28800 RLU in assay [15]; 24500 RLU in assay [16]; 3840 RLU in assay [17]; 371 RLU in [18]. In addition, the Trimeric HA Binding RLU was found to be 23000 RLU in assay [19], 30900 RLU in [20] and 850 RLU in assay [21].

B2: TCN-504 (3251_K17) (antibody, V domains shown)
VH: QVQLQESGPGLVKPSETLSLTCAVSGVSISNIDFYWGWIRQPPGKGLEWIGNIYYTGITFYNPSLSSRVAISIDTSKNQFSLTLTSVTAADTAMYYCARHYGDSEAINDAFDIWGQGTMLTVSS
VL: EIVMTQSPATLSVSPGERATLSCRASQSVGNSLAWYQQRPGQAPRLLIYGASTRATGIPPRFSGSGSGTEFTLTISSLQTEDFAVYYCQQYINWRPLSFGGGTKVEIK
Turning to B2, the Trimeric HA Binding RLU was 29000 RLU in assay [22]; 23800 RLU in assay [23]; 14300 RLU in [24]; 28900 RLU in assay [25]; 31000 RLU in assay [26]; 19300 RLU in [27]. In addition, the Trimeric HA Binding RLU in assay [28] was found to be 17800 RLU; in assay [4], 18600 RLU; in assay [5] it was 18000 RLU; in [6], 36 RLU; in [7], 18600 RLU; in assay [8], 36000 RLU. Further, the Trimeric HA Binding RLU turned out to be 32700 RLU in assay [9]; 27600 RLU in assay [10]; 13300 RLU in [11]; 10300 RLU in assay [12]; 17800 RLU in assay [13]; 34500 RLU in assay [14]. Also, the Trimeric HA Binding RLU in assay [15] is 549 RLU; in [16], 18200 RLU; in [17] it was 19600 RLU; in [18], 14600 RLU; in [19] it was 21700 RLU; in [20], 25700 RLU. Further, the Trimeric HA Binding RLU in [21] was 21800 RLU. In [29], the Trimeric HA Binding: RLU was 7 RLU.

Source of the values: US20120207760A1.
